The Kd is the constant that tells how readily two partners part at equilibrium. The low end stands for a tighter complex, the high end for a looser complex.

Experiment [1] concerns the target PHD finger of Drosophila PPS (PPS-PHD), wild type, as used in NMR and fluorescence (Drosophila). Kind of experiment: other fluorescence titration.
The target is the same in experiment [2]. Kind of experiment: other fluorescence titration. This is another data set of the same source.
Experiment [3] has the same target. Kind of experiment: other fluorescence titration. This is another data set of the same source.
Experiment [4] has the same target. Kind of experiment: NMR titration.
For experiment [5], the target named is PPS-PHD (Drosophila melanogaster, UniProt Q9VG78). Kind of experiment: 1H,15N HSQC NMR titration, PPS-PHD. The class given is binding. To be noted: pH 6.9, H3 peptide residues 1-12, 298K.
Experiment [6] concerns the target T1, PHD finger of yeast Bye1 (Bye1-PHD), aa 47-134 (S. cerevisiae, UniProt P36106 47-134).
T1 sequence (looked up): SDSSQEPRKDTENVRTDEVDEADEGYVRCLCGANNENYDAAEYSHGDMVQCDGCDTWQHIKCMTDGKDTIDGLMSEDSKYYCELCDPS
Kind of experiment: other fluorescence titration.

Where no end group is shown, it is not given here. Me3 = trimethyl-lysine

Sequence of PPS-PHD (Q9VG78 1-2016): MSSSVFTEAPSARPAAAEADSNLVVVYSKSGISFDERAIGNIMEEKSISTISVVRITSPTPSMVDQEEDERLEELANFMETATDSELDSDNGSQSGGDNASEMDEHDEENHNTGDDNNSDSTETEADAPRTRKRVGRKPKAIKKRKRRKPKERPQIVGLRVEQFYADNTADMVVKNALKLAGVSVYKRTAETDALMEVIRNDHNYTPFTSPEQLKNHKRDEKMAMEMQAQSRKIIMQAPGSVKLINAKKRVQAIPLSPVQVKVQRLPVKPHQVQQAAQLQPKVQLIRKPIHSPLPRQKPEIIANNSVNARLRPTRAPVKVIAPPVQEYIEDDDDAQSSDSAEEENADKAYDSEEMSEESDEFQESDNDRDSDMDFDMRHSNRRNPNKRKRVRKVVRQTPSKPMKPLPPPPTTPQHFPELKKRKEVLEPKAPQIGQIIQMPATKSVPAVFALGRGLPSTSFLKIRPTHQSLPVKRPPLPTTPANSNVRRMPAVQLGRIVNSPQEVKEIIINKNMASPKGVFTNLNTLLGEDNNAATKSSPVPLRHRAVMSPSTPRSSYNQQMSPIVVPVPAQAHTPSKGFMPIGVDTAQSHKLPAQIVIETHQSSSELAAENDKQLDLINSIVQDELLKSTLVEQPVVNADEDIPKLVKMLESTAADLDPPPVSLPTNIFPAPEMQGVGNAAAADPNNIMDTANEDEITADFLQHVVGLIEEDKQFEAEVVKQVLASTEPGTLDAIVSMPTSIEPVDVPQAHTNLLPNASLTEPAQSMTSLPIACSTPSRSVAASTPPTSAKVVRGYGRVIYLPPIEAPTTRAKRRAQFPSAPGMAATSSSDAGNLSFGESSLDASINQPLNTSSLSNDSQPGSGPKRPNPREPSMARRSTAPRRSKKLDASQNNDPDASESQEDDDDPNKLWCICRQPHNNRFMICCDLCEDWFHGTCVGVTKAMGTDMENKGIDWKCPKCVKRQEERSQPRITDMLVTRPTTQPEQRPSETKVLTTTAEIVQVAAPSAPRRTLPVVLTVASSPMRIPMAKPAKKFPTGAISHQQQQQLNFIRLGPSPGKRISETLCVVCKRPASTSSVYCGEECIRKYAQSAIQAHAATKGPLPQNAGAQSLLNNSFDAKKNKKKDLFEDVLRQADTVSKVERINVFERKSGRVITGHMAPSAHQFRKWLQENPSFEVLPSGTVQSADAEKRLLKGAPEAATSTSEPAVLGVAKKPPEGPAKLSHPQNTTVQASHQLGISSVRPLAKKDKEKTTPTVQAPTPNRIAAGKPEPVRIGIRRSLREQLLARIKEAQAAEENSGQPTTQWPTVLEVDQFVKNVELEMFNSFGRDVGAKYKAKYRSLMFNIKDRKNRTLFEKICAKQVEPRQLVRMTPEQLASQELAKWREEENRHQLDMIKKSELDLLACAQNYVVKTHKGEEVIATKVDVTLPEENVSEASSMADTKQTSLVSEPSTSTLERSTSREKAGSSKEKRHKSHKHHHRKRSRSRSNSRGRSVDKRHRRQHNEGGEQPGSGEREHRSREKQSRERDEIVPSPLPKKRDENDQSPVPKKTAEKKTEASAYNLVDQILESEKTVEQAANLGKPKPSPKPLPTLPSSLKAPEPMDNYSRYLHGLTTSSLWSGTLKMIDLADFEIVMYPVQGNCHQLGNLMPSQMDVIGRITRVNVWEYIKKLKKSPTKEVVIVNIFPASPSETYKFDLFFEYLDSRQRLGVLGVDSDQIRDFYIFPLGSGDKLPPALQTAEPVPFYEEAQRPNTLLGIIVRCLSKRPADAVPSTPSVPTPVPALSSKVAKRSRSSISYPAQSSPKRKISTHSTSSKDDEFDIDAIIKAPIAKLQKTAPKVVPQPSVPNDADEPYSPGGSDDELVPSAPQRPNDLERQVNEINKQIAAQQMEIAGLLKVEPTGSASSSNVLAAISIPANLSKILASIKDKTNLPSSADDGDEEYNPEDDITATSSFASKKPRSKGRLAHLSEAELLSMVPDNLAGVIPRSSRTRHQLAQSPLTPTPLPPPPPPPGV

“histone H3K4me3 peptide (residues 1-12 of H3) (from UniProt P68431 2-13)”: the dissociation constant (Kd) in experiment [1] was found to be 17 µM; in experiment [2], 1.9 µM; in experiment [3], 3.6 µM. “histone H3K4me1 peptide (residues 1-12 of H3) (from UniProt P68431 2-13)”: the Kd in experiment [4] was 230 µM. “H3K4me0: H3K4me0 peptide (1–12 aa), unmethylated histone H3 tail, Synpeptide”: in experiment [5], the “Binding by NMR chemical shift perturbations (CSPs), in words” value was “no CSPs in PPS-PHD were seen”. The “Recognition of unmethylated histone H3 tail, in words” value in experiment [5] (NMR) was “does not recognize unmethylated histone H3 tail at all”.

B1: histone H3K4me3 peptide (residues 1-12 of H3) (peptide, UniProt P68431 2-13, looked up)
peptide: ARTK(Me3)QTARKSTG
With B1, the binding result in experiment [6] is “binds”.

Values taken from publication PMC5679713 (Structure (London, England : 1993), 2017).
